Reverse-splicing fitness data for 83 variants are collected here from the RNAGym collection of RNA variant scans (doi:10.1093/molbev/msab373).

Sequences and labels used below:
B1: Azoarcus group I ribozyme (parent)
chain: GUGCCUUGCGCCGGGAAACCACGCAAGGGAUGGUGUCAAAUUCGGCGAAACCUAAGCGCCCGCCCGGGCGUAUGGCAACGCCGAGCCAAGCUUCGGCGCCUGCGCCGAUGAAGGUGUAGAGACUAGACGGCACCCACCUAAGGCAAACGCUAUGGUGAAGGCAUAGUCCAGGGAGUGGCGAAAGUCACACAAACCGG

Variants of B1 are the subject of the series. In words: reverse-splicing fitness (ratio to wild type); higher = more active; in vitro selection; Mg2+ level not given. Put shortly: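 An in vitro group I ribozyme library with randomized positions was T7-transcribed and gel-purified. In triplicate, 10 pmol RNA in EPPS pH 7.5 was reacted with 50 pmoles of a 30-nt RNA substrate for 1 h at 37 °C across several added MgCl2 levels (1–48 mM), then stopped with EDTA. Products were reverse transcribed from a substrate-complementary primer, PCR-amplified and sequenced (HiSeq 4000). Fitness is a variant's read proportion after selection over that before, normalised to wild type.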
For the variant C82G A120C A145C C150A C169G U176C, the reverse-splicing fitness is 0.0164.
The result for C82G A120C A145C C150A C169G U176G reads 0.0056; that for C82G A120C A145G C150G C169A U176C, 0.0145.
The result for C82G A120C A145G C150G C169A U176A reads 0.0143; that for C82G A120C A145G C150G C169A U176G, 0.00912; that for C82G A120C A145C C150A U176G, 0.0054.
On to C82G A120C A145C C150A U176C, for which the reverse-splicing fitness came to 0.0118.
The result for C82G A120C A145C C150A U176A reads 0.012; that for C82G A120C C150U C169A, 0.0121; that for C82G A120C C150U C169G, 0.00822.
On to C82G A120C C150U C169U, for which the reverse-splicing fitness worked out at 0.0173.
With C82G A111U C150G C169A the figure was 0.0104; with C82G A111U C150G C169G, 0.00744; with C82G A111U C150G C169U, 0.0102.
With C82G A120C A145G C169U U176G the figure was 0.00453.
With C82G A120C A145G C169U U176A the figure was 0.017.
Turning to C82G A120C A145G C169U U176C, the reverse-splicing fitness was found to be 0.0174.
With C82G A111U C169U U176G the figure was 0.00639; with C82G A111U C169U U176C, 0.0158; with C82G A111U C169U U176A, 0.0177.
With C82G A120C C150A C169U U176A the figure was 0.0156; with C82G A120C C150A C169U U176C, 0.0182.
With C82G A120C C150A C169U U176G the figure was 0.00663; with C82G A120C A145G C150G C169G, 0.00813; with C82G A120C A145G C150G C169U, 0.0121.
Consider C82G A120C A145G C150G C169A, for which the reverse-splicing fitness is 0.0104.
The result for C82G A120C A145U C150A C169A reads 0.00989.
The result for C82G A120C A145U C150A C169U reads 0.00929; that for C82G A120C A145U C150A C169G, 0.00739.
With C82G A120C A145U C150G C169G U176A the figure was 0.00782; with C82G A120C A145U C150G C169G U176C, 0.00634.
In the case of C82G A120C A145U C150G C169G U176G, the reverse-splicing fitness was found to be 0.00427.
With C82G A120C A145U C150U U176G the figure was 0.0119.
With C82G A120C A145U C150U U176C the figure was 0.0672; with C82G A120C A145U C150U U176A, 0.0489; with C82G A120C A145G C150U C169U U176C, 0.0155.
With C82G A120C A145G C150U C169U U176G the figure was 0.00474.
For the variant C82G A120C A145G C150U C169U U176A, the reverse-splicing fitness is 0.0184.
The result for C82G A120C C150G C169G U176C reads 0.00574.
With C82G A120C C150G C169G U176G the figure was 0.00538; with C82G A120C C150G C169G U176A, 0.0067; with C82G A120C A145G C150U C169A U176A, 0.0194.
With C82G A120C A145G C150U C169A U176G the figure was 0.0065.
For C82G A120C A145G C150U C169A U176C, the reverse-splicing fitness was determined as 0.0158.
As for C82G A120C A145U C150U C169G U176A, the reverse-splicing fitness stood at 0.0139.
Turning to C82G A120C A145U C150U C169G U176C, the reverse-splicing fitness is 0.015.
The result for C82G A120C A145U C150U C169G U176G reads 0.0044; that for C82G A120C A145G C150A C169G U176C, 0.0256; that for C82G A120C A145G C150A C169G U176A, 0.0184.
For C82G A120C A145G C150A C169G U176G, the reverse-splicing fitness was 0.0054.
The result for C82G A111U C169U reads 0.0134.
The result for C82G A111U C169G reads 0.00946; that for C82G A111U C169A, 0.00938.
C82G A120C A145U C150G C169U U176G: the reverse-splicing fitness worked out at 0.00547.
Turning to C82G A120C A145U C150G C169U U176A, the reverse-splicing fitness turned out to be 0.00813.
The result for C82G A120C A145U C150G C169U U176C reads 0.012; that for C82G A120C C150U C169A U176G, 0.00618; that for C82G A120C C150U C169A U176A, 0.0177.
With C82G A120C C150U C169A U176C the figure was 0.0133.
The result for C82G A120C C169A U176G reads 0.00393; that for C82G A120C C169A U176A, 0.0185.
For C82G A120C C169A U176C, the reverse-splicing fitness stood at 0.0179.
With C82G A120C C169G U176A the figure was 0.0172; with C82G A120C C169G U176C, 0.0176.
With C82G A111U C150G C169U U176G the figure was 0.00728; with C82G A111U C150G C169U U176C, 0.0129; with C82G A111U C150G C169U U176A, 0.00863.
In the case of C82G A120C C150U C169G U176G, the reverse-splicing fitness was determined as 0.0048.
With C82G A120C C150U C169G U176A the figure was 0.0141.
For C82G A120C C150U C169G U176C, the reverse-splicing fitness amounted to 0.0162.
Regarding C82G A120C A145G C150U U176C, the reverse-splicing fitness was found to be 0.0797.
With C82G A120C A145G C150U U176A the figure was 0.0566; with C82G A120C A145G C150U U176G, 0.0154.
Regarding C82G A120C C150G C169A U176A, the reverse-splicing fitness came out at 0.01.
The result for C82G A120C C150G C169A U176G reads 0.0082; that for C82G A120C C150G C169A U176C, 0.0106; that for C82G A111U C150A C169U U176A, 0.0148.
Consider C82G A111U C150A C169U U176G, for which the reverse-splicing fitness worked out at 0.00776.
On to C82G A111U C150A C169U U176C, for which the reverse-splicing fitness was 0.0161.
The result for C82G A111U C150A C169G reads 0.00899; that for C82G A111U C150A C169U, 0.0113.
The result for C82G A111U C150A C169A reads 0.0114.
The result for C82G A120C A145U U176G reads 0.0177.
